Measured values: patent publication US20250250357A1 (NANJING ZAIMING PHARMACEUTICAL, published 2025)

How the values were obtained:
[1] = target: T1, human MSLN-R1-his protein (human, UniProt Q13421 296-390); experiment: ELISA, antibody 0.01 nM
T1 construct: also called hMSLN-R1-his; human MSLN-R1 protein
T1 chain: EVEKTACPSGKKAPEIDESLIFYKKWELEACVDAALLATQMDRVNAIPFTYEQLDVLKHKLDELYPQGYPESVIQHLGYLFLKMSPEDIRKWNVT

[2] = target: T1, human MSLN-R1-his protein; experiment: ELISA, antibody 0 nM (blank)
[3] = target: T1, human MSLN-R1-his protein; experiment: ELISA, antibody 0.1 nM
[4] = target: T1, human MSLN-R1-his protein; experiment: ELISA, antibody 10 nM
[5] = target: T1, human MSLN-R1-his protein; experiment: ELISA, antibody 0.0001 nM
[6] = target: T1, human MSLN-R1-his protein; experiment: ELISA, antibody 100 nM
[7] = target: T1, human MSLN-R1-his protein; experiment: ELISA, antibody 1 nM
[8] = target: T1, human MSLN-R1-his protein; experiment: ELISA, antibody 0.001 nM
[9] = target: T2, human MSLN-R2-his protein (human, UniProt Q13421 391-486); experiment: ELISA; antibody 0.001 nM
T2 construct: also called hMSLN-R2-his; not shown: His tag

[10] = target: T2, human MSLN-R2-his protein; experiment: ELISA; antibody 10 nM
[11] = target: T3, human MSLN-R3-3 polypeptide (human); experiment: ELISA; antibody 1 nM
T3 construct: also called hMSLN-R3-3

[12] = target: T4, human MSLN-R3-his protein (human, UniProt Q13421 487-598); experiment: ELISA; antibody 1 nM
T4 construct: also called hMSLN-R3-his; not shown: His tag

[13] = target: T2, human MSLN-R2-his protein; experiment: ELISA; antibody 1 nM
[14] = target: T4, human MSLN-R3-his protein; experiment: ELISA; antibody 100 nM
[15] = target: T2, human MSLN-R2-his protein; experiment: ELISA; antibody 1 nM; remark: listed apart in the source
[16] = target: T4, human MSLN-R3-his protein; experiment: ELISA; antibody 0 nM (blank)
[17] = target: T4, human MSLN-R3-his protein; experiment: ELISA; antibody 1 nM; remark: listed apart in the source
[18] = target: T2, human MSLN-R2-his protein; experiment: ELISA; antibody 100 nM
[19] = target: T4, human MSLN-R3-his protein; experiment: ELISA; antibody 0.01 nM
[20] = target: T2, human MSLN-R2-his protein; experiment: ELISA; antibody 0.0001 nM
[21] = target: T4, human MSLN-R3-his protein; experiment: ELISA; antibody 0.001 nM
[22] = target: T4, human MSLN-R3-his protein; experiment: ELISA; antibody 0.0001 nM
[23] = target: T2, human MSLN-R2-his protein; experiment: ELISA; antibody 0.01 nM
[24] = target: T2, human MSLN-R2-his protein; experiment: ELISA; antibody 0.1 nM
[25] = target: T4, human MSLN-R3-his protein; experiment: ELISA; antibody 0.1 nM
[26] = target: T2, human MSLN-R2-his protein; experiment: ELISA; antibody 0 nM (blank)
[27] = target: T4, human MSLN-R3-his protein; experiment: ELISA; antibody 10 nM
human MSLN-R3 protein [28] = target: T5, human MSLN-R3 protein (human, UniProt Q13421 487-598); experiment: ELISA, MSLN-R3 coated, antibody 0.1 nM
T5 construct: also called hMSLN-R3

[29] = target: T6, human MSLN-R3 on HEK293T-hMSLN-R3 recombinant cells (human, UniProt Q13421 487-606); experiment: FACS, HEK293T-hMSLN-R3 cells
T6 construct: the C-terminal limit is uncertain; also called human MSLN-R3 membrane protein

human MSLN-R3 protein [30] = target: T5, human MSLN-R3 protein; experiment: ELISA, MSLN-R3 coated, antibody 0.01 nM
human MSLN-R3 protein [31] = target: T5, human MSLN-R3 protein; experiment: ELISA, MSLN-R3 coated, antibody 0.0001 nM
[32] = target: T7, human MSLN on OVCAR3 tumor cells (human, UniProt Q13421 296-598); experiment: FACS, OVCAR3 cells
T7 construct: whole, on cells; also called human MSLN protein

human MSLN-R3 protein [33] = target: T5, human MSLN-R3 protein; experiment: ELISA, MSLN-R3 coated, antibody 100 nM
human MSLN-R3 protein [34] = target: T5, human MSLN-R3 protein; experiment: ELISA, MSLN-R3 coated, antibody 1 nM
human MSLN-R3 protein [35] = target: T5, human MSLN-R3 protein; experiment: ELISA, MSLN-R3 coated, antibody 0.001 nM
[36] = target: T8, monkey MSLN on HEK293T-monkey MSLN recombinant cells (monkey); experiment: FACS, HEK293T-monkey MSLN cells
T8 construct: Full-length precursor as transfected; processing on the cell is not described; also called HEK293-monkey MSLN
T8 chain: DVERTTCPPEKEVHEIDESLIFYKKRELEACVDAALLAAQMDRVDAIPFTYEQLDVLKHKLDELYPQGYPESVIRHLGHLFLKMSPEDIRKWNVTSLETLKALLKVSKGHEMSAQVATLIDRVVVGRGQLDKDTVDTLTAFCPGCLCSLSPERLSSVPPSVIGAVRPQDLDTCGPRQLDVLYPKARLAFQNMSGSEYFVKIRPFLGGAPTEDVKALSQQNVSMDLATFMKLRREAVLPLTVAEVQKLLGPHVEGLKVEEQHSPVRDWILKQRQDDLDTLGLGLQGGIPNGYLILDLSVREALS

[37] = target: T9, human MSLN-hFc recombinant protein (human, UniProt Q13421 296-580); experiment: SPR (Biacore 8K), MSLN-hFc captured, antibody injected
T9 construct: Captured by an anti-human IgG antibody on the chip; also called human MSLN protein; Acro MSN-H5253

human MSLN-R3 protein [38] = target: T5, human MSLN-R3 protein; experiment: ELISA, MSLN-R3 coated, antibody 10 nM
[39] = target: T10, human MSLN-FL-his protein (human, UniProt Q13421 296-580); experiment: ELISA
T10 construct: also called hMSLN-FL-his; human MSLN full-length protein

[40] = target: T10, human MSLN-FL-his protein; experiment: SPR (Biacore), antibody captured on Protein A, MSLN-FL-his injected
[41] = target: T11, human MSLN-hFc protein (Acro, Cat. No. MSN-H5253) (human, UniProt Q13421 296-580); experiment: ELISA, coated human MSLN-hFc
T11 construct: bought
T11 sequence (Q13421 other isoform, or with tags, fused parts or gaps limits assumed): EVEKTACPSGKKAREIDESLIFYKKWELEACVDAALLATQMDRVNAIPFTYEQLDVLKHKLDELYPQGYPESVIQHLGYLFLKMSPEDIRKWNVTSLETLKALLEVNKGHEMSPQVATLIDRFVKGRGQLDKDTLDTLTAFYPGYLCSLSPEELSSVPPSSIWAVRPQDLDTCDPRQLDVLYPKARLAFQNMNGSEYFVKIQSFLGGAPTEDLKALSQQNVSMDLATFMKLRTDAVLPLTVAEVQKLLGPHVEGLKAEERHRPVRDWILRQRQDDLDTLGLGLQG

T4 sequence (Q13421 495-606): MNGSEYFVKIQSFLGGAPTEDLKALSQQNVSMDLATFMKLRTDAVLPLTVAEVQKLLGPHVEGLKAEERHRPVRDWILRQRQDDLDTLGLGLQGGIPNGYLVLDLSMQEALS
T5 sequence (Q13421 495-606): as above
T2 sequence (Q13421 other isoform, or with tags, fused parts or gaps): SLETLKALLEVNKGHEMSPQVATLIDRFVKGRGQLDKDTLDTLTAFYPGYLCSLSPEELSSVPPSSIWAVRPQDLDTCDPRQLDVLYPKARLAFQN
T6 sequence (Q13421 495-614): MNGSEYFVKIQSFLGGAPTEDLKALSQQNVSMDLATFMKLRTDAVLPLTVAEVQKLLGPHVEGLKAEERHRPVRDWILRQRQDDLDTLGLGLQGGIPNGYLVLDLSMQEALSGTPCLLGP
T7 sequence (Q13421 other isoform, or with tags, fused parts or gaps): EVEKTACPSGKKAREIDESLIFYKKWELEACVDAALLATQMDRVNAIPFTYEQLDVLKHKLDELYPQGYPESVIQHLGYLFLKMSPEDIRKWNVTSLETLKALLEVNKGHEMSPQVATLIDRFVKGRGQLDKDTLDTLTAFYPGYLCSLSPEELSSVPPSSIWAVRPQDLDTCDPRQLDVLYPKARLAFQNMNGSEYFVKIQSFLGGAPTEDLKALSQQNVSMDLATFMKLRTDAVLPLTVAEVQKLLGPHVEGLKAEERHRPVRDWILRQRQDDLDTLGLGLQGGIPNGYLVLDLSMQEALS
T9 sequence (Q13421 other isoform, or with tags, fused parts or gaps): as the sequence (Q13421 other isoform, or with tags, fused parts or gaps limits assumed) above

B1: Tab107 (YP3, hIgG1) (antibody, V domains shown)
VH: QEQLVESGGGLVQPGASLTLTCTASGIDFSRYYMCWVRQAPGKGLEGIACIYIGGSGSTYYASWAKGRFTISKASSTTVTLQMTSLTAADTATYFCARGTNLNYIFRLWGPGTLVTVSS
VL: DVVMTQTPSPVSAAVGGTVTIKCQASQSINNGLAWYQQKPGQPPRLLIYSASNLESGVPSRFKGSGSGTEFTLTISDLECDDAATYYCQCIWDGNSYVNAFGGGTEVVVRT
notes: also called YP3 human IgG1 antibody
[1]
  OD450 nm: 0.06
[2]
  OD450 nm: 0.05
[3]
  OD450 nm: 0.05
[4]
  OD450 nm: 0.06
[5]
  OD450 nm: 0.04
[6]
  OD450 nm: 0.08
[7]
  OD450 nm: 0.05
[8]
  OD450 nm: 0.05

B2: Tab020 (YP223, rabbitIgG1) (antibody, V domains shown)
VH: QEQLEESGGDLVQPEGSLTLTCKASGLDFSSSYWICWVRQAPGKGLEWIGCRHTFTANTWSASWVNGRFTISRSTSLGTVDLKMTSLTAADTATYFCARDESNNDGWDFKLWGPGTLVTVSS
VL: AYDMTQTPASVSAAVGGTVTIKCQASQSISNYLAWYQQKPGQPPKLLIYQASTLAPGVSSRFKGSGSGTEFTLTISGVECADAATYYCQQGYTSSNVENVFGGGTGVVVGD
notes: Control antibody; VH and VL recombined into rabbit IgG1 CH and CL expression vectors; also called YP223 rabbit IgG1 antibody; rabbit anti-human MSLN antibody
[9]
  OD450 nm: 0.05
[10]
  OD450 nm: 2.01
[11]
  OD450 nm: 0.09
[12]
  OD450 nm: 0.05
[13]
  OD450 nm: 1.49
[14]
  OD450 nm: 0.05
[15]
  OD450 nm: 1.49
[16]
  OD450 nm: 0.05
[17]
  OD450 nm: 0.05
[18]
  OD450 nm: 2.5
[19]
  OD450 nm: 0.05
[20]
  OD450 nm: 0.05
[21]
  OD450 nm: 0.05
[22]
  OD450 nm: 0.05
[23]
  OD450 nm: 0.07
[24]
  OD450 nm: 0.2
[25]
  OD450 nm: 0.05
[26]
  OD450 nm: 0.05
[27]
  OD450 nm: 0.05

B3: F3.38.10-L1H5 (scFv, not shown: small tags and cut ends)
scFv: DIVMTQTPLSLPVTPGEPASISCRSSQSLIHSDGNTYLQWYLQKPGQSPQLLIYKVSNRFSGVPDRFSGSGSGTDFTLKISRVEAEDVGVYYCSQTTHVPFTFGQGTKLEIKGGGGSGGGGSGGGGSEVQLVQSGAEVKKPGASVKVSCKASGYIFTDYYMNWVRQAHGQRLEWMGVINPKNGVISHNQKFKGRVTITVDKSANTAYMELSSLRSEDTAVYYCANYGSRFYAMDYWGQGTTVTVSS
notes: also called S009-F3.38.10 humanized antibody VL1 + VH5
Human MSLN-R3 protein [28]
  OD450 nm: 0.08 OD
[29]
  EC50: 12 nM
  Maximum_MFI: 1280 MFI
Human MSLN-R3 protein [30]
  OD450 nm: 0.07 OD
Human MSLN-R3 protein [31]
  OD450 nm: 0.07 OD
[32]
  EC50: 99.8 nM
Human MSLN-R3 protein [33]
  OD450 nm: 2.36 OD
Human MSLN-R3 protein [34]
  OD450 nm: 0.27 OD
Human MSLN-R3 protein [35]
  OD450 nm: 0.07 OD
[36]
  EC50: 90.1 nM
[37]
  binding result: no binding
Human MSLN-R3 protein [38]
  OD450 nm: 1.19 OD

B4: S009-F3.38.10 (antibody, human IgG1, kappa, V domains shown)
VH: EVQLQQSGPVLVKPGASVKMSCEASGYIFTDYYMNWVKKSHGKSLEWIGVINPKNGVISHNQKFKGKATLTVDKSSNTAYMELSSLTSEDSAVYYCANYGSRFYAMDYWGQGTSVTVSS
VL: DVVMTQTPLSLPVSLGDQASISCRSSQSLIHSDGNTYLQWYLQKSGQSPKLLIYKVSNRFSGVPDRFSGSGSGTDFTLKISRVETEDLGVYFCSQTTHVPFTFGSGTKLEIKR
notes: chimeric, human IgG1/kappa
[39]
  binding result: no binding (tested: up to 100 nM)

B5: S009-F3.16.1 (antibody, human IgG1, kappa, V domains shown)
VH: EVKFEESGGGLVQPGGSMKLSCVASGFTFSNYWMNWVRQSPEKGLEWVAQIRLKSDNYATHYAESVKGRFSISRDDSKSSVYLQMNNLRAEDTGIYYCSVGTGGYWGQGTTLTVSS
VL: DIVLTQSPASLALSPGKRATISCRASESVSIIGTDVIHWFQQKPGQPPKLLIYHASNLETGVPARFSGSGSRTDFTLTIDPVEEDDVAIYYCLQSRKIPWTFGGGTKLEIKR
notes: chimeric, human IgG1/kappa
[40]
  binding result: no binding

B6: F3.38.10-L1H5 (scFv, not shown: small tags and cut ends)
scFv: B3 scFv
[41]
  binding result: no binding (tested: up to 100 nM)

B7: F3.38.10-L2H3a (scFv, not shown: small tags and cut ends)
scFv: DIVMTQSPDSLAVSLGERATINCRSSQSLIHSDGNTYLQWYQQKPGQSPKLLIYKVSNRFSGVPDRFSGSGSGTDFTLTISSLQAEDVAVYYCSQTTHVPFTFGQGTKLEIKGGGGSGGGGSGGGGSEVQLVQSGAEVKKPGASVKVSCKASGYIFTDYYMNWVRQAPGQRLEWMGVINPKQGVISHNQKFKGRVTITVDKSANTAYMELSSLRSEDTAVYYCANYGSRFYAMDYWGQGTTVTVSS
[41]
  binding result: no binding (tested: up to 100 nM)
